From patent publication WO2015086830A1 (dated 2015)

Assays:
[1] = molecular target: VEGF (vascular endothelial growth factor) (UniProt P15692-4 27-191, limits assumed); assay: cell-based or functional assay
[2] = molecular target: T1, VEGF165 (UniProt P15692-4 27-191); assay: in vitro binding; method not stated
T1 construct: P15692 is the human VEGFA entry; VEGF165 is one isoform of that entry; also called VEGFA isoform 165
T1 sequence (P15692 other isoform, or with tags, fused parts or gaps limits assumed): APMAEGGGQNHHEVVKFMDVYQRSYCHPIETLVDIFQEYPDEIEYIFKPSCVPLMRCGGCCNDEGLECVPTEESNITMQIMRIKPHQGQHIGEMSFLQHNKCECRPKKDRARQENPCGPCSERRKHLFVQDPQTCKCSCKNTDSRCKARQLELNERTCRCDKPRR

VEGF (vascular endothelial growth factor), sequence (P15692 other isoform, or with tags, fused parts or gaps limits assumed): as above

VEGF induced HUVEC proliferation, IC50 [1]: 0.19 nM
Kd [2]: 0.0284 nM
B1: scFv3, anti-VEGF-scFv comprising SEQ ID No.: 3 (scFv)
scFv: EIVMTQSPSTLSASVGDRVIITCQASEIIHSWLAWYQQKPGKAPKLLIYLASTLASGVPSRFSGSGSGAEFTLTISSLQPDDFATYYCQNVYLASTNGANFGQGTKLTVLGGGGGSGGGGSGGGGSGGGGSEVQLVESGGGLVQPGGSLRLSCTASGFSLTDYYYMTWVRQAPGKGLEWVGFIDPDDDPYYATWAKGRFTISRDNSKNTLYLQMNSLRAEDTAVYYCAGGDHNSGWGLDIWGQGTLVTVSS
notes: About 26.3 kDa
